According to article PMC11176775, “Impact of DNA ligase 1 and IIIα interactions with APE1 and polβ on the efficiency of base excision repair pathway at the downstream steps” (The Journal of Biological Chemistry, 2024):

Biological target: DNA polymerase β (1–335 amino acids), as used in SEC and in the repair assays (UniProt P06746 1-335)
Test: cell-based or functional assay

amount of ligation products after polβ dGTP:C insertion in the coupled assay, absence against presence of the N-terminal region of LIG1, earlier time points (10-60 s): ~20 fold
B1: LIG1▵N-terminal (262–919 amino acids) (domain or fragment)
chain: DPSGYNPAKNNYHPVEDACWKPGQKVPYLAVARTFEKIEEVSARLRMVETLSNLLRSVVALSPPDLLPVLYLSLNHLGPPQQGLELGVGDGVLLKAVAQATGRQLESVRAEAAEKGDVGLVAENSRSTQRLMLPPPPLTASGVFSKFRDIARLTGSASTAKKIDIIKGLFVACRHSEARFIARSLSGRLRLGLAEQSVLAALSQAVSLTPPGQEFPPAMVDAGKGKTAEARKTWLEEQGMILKQTFCEVPDLDRIIPVLLEHGLERLPEHCKLSPGIPLKPMLAHPTRGISEVLKRFEEAAFTCEYKYDGQRAQIHALEGGEVKIFSRNQEDNTGKYPDIISRIPKIKLPSVTSFILDTEAVAWDREKKQIQPFQVLTTRKRKEVDASEIQVQVCLYAFDLIYLNGESLVREPLSRRRQLLRENFVETEGEFVFATSLDTKDIEQIAEFLEQSVKDSCEGLMVKTLDVDATYEIAKRSHNWLKLKKDYLDGVGDTLDLVVIGAYLGRGKRAGRYGGFLLASYDEDSEELQAICKLGTGFSDEELEEHHQSLKALVLPSPRPYVRIDGAVIPDHWLDPSAVWEVKCADLSLSPIYPAARGLVDSDKGISLRFPRFIRVREDKQPEQATTSAQVACLYRKQSQIQNQQGEDSGSDPEDTY
